Results: paper PMC4372590, “Autonomously Folding Protein Fragments Reveal Differences in the Energy Landscapes of Homologous RNases H” (PLoS ONE, 2015)

Target: T1, T. thermophilus RNase H I_(core) fragment (T. thermophilus)
T1 chain: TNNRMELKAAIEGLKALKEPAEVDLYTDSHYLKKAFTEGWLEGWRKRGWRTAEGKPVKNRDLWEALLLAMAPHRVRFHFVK
Assay: AUC; equilibrium analytical ultracentrifugation (Beckman XL-I); 25, 50 and 100 uM samples; 24,500, 30,000 and 37,000 rpm; absorbance at 250 nm; global fit to a monomer-dimer equilibrium (dimer to monomers); room temperature, 20 mM sodium acetate pH 5.5, 50 mM potassium chloride
Conditions: both partners purified

- Kd: ~150 µM
- stoichiometry N: 2
B1: T. thermophilus RNase H I_(core) fragment (domain or fragment)
chain: TNNRMELKAAIEGLKALKEPAEVDLYTDSHYLKKAFTEGWLEGWRKRGWRTAEGKPVKNRDLWEALLLAMAPHRVRFHFVK
modifications: Printed limits 43-122 use E. coli alignment numbering. The offset is +4 at the N-terminal end (R4=R8, W22=W26, D66=D70) and +5 after the one-residue insertion near 80, so 122=K127. The paper says …
